Here are results for 30 sequences from the nanobody polyreactivity screen of Harvey et al. (2022).

This data set in a line: yeast display, Sf9 membrane polyspecificity reagent, FACS + sequencing; frameworks hold sequencing errors. The method, boiled down: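 Sorting gates, low and high (top ~1%), were placed on anti-HA fluorescence to track expression and on streptavidin fluorescence to track reagent binding. A clone's polyreactivity label is taken from the gate it came out of. The reagent was 10% biotinylated, detergent-solubilized Sf9 membrane, applied for 1 hour at 4 °C to galactose-induced yeast display cells.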
With “QVQLVESGGGLVQAGGSLRLSCAASGRIFYTYVMGWYRQAPGKERELVAAINRSGGTTYYADSVKGRFTISRDNAKNTGYLPMNSLKPEDTAVYYCNATLPDYWPYYYYQGGDDYWGQGTQVTVSS”, the “polyreactivity (PSR sort gate)” value is recorded as “low polyreactivity”.

“QVQLVESGGGLVQAGGSLRLSCAASGRIFYVYAMGWYIKAPGKERELVAAITSSGGRTNYADSVKGRFTISRDNAKNTVYLQMNSLKPEDTAVYYCAAAYPWGDYGVSDYDYWGQGTQVTVSS”: the “polyreactivity (PSR sort gate)” value is on record as “low polyreactivity”.

Consider “QVQLVESGGGLVQAGGSLRLSCAASGRIFYVYAMGWYRQAPGKERELVAAINWRGGSTYYADSVKGRFPISRDNAKNTVYLQMNSLKPEDTAVYYCAARWYLYDYWGQGTQVTVSS”, for which the “polyreactivity (PSR sort gate)” value is “low polyreactivity”.

For “QVQLVESGGGLVQAGGSLRLSCAASGRIFYVYTMGWYRQAPGKERELVAAISWSGGSTHYADSVKGRFTISRDNAKNTVYLQMNSLKPEDTAGYYCNKGVVSRVAFEYWGQGTQLTVSS”, the “polyreactivity (PSR sort gate)” value was “low polyreactivity”.

As to “QVQLVESGGGLVQAGGSLRLSCAASGRIFYWNVMGWYRQAPGKERELVAAISSSGASTSYADSEKGRFTISRDNEKNTVYLQMNSLKPEVTAGYYCDARTRRNYRQYNYWGQATQVTVSS”, the “polyreactivity (PSR sort gate)” value is listed as “high polyreactivity”.

With “QVQLVESGGGLVQAGGSLRLSCAASGRIFYWYAMGWYRQAPGKERELVAAISSAGTTYYADSVKGRFTISRDNAKNTVYLQMNSLKPEDTAVYYCAATLGFYRRSEYDYWGQGTQVTVSS”, the “polyreactivity (PSR sort gate)” value is “high polyreactivity”.

“QVQLVESGGGLVQAGGSLRLSCAASGRIFYWYAMGWYRQAPGKERELVATINSGGSTTYADSVKGRFTISRDNAKNTVYLQMNSLKPEDTAVYYCARQRTVKKYYYWGQGTQVTVSS”: the “polyreactivity (PSR sort gate)” value was “high polyreactivity”.

With “QVQLVESGGGLVQAGGSLRLSCAASGRIFYWYTMGWYRQAPGKERELVASISGSGGSTYYADSVKGRFTISRDNAKNTVYLQMNSLKPEDTAVYYCNKGSRWLRGLDYWGQGTQVTVSS”, the “polyreactivity (PSR sort gate)” value is recorded as “high polyreactivity”.

As to “QVQLVESGGGLVQAGGSLRLSCAASGRIFYWYVMGWYIQAPGKERELVATIRYSGGNTYYADSVKGRFTISRDNAKNTVYLQMNSLKPEDTAVYYCAAGSLYWGRSPTRGGQGGYWGQGTQVTVSS”, the “polyreactivity (PSR sort gate)” value was “high polyreactivity”.

With “QVQLVESGGGLVQAGGSLRLSCAASGRIFYYNAMGWYRPAPGKERELVAAITYIGGNTHYADSVKGRFTISRDNAKYTVYLQMNSLKPEDTAVYYCARGTVLGFYYEYGYWGQGTQVTVSS”, the “polyreactivity (PSR sort gate)” value is given as “low polyreactivity”.

Turning to “QVQLVESGGGLVQAGGSLRLSCAASGRIFYYNAMGWYRQAPGKERELVAAISYTSGRTYYADSVKGRFTISRDNAKNTVYLQMNSLKPEDTAVYYCAADYYLRKGMDYWGQVTQVTVSS”, the “polyreactivity (PSR sort gate)” value is “low polyreactivity”.

With “QVQLVESGGGLVQAGGSLRLSCAASGRIFYYNAMGWYRQAPGKERELVAAITSGGSTNYADSVKGRFTISRDNAKNTVYLQMNSLNPEDTAVYYCAADYYYYVAGVHYDYWGQGTLVTVSS”, the “polyreactivity (PSR sort gate)” value is on record as “low polyreactivity”.

Take “QVQLVESGGGLVQAGGSLRLSCAASGRIFYYNAMGWYRQAPRKERELVASITGSGGSTYYADSVKGRFTISRDNAKNTVYLQMNSLKPEDSAVYYCAKREYLYRYYYVAKYDYWGQGTQVSVSS”: the “polyreactivity (PSR sort gate)” value is on record as “low polyreactivity”.

Take “QVQLVESGGGLVQAGGSLRLSCAASGRIFYYNPMGWYRQAPGKERELVAAITKSGGRTYYADSVKGRFTISRDNSKNTVYLQMYSLKPEDTAVYYCAALSRAGEYDYWGQGTQVTVSS”: the “polyreactivity (PSR sort gate)” value is “high polyreactivity”.

On to “QVQLVESGGGLVQAGGSLRLSCAASGRIFYYNSMGWYREAPGKERELVAAIRSGGGSTYYADSVKGRFTISRDNAKNTVYLQMNSLKPEDTAVYYCAAEPSQRYPWSGYDYWGQGTQVTVSS”, for which the “polyreactivity (PSR sort gate)” value is on record as “low polyreactivity”.

With “QVQLVESGGGLVQAGGSLRLSCAASGRIFYYNVMGWYRQAPGKEREFVAAISTRTGSTYYADSVKGRFTISRDNAKNTVYLQMNSLKPEDTAVYYCAAPYRAYSYDYWGQGTQVTVSS”, the “polyreactivity (PSR sort gate)” value is recorded as “high polyreactivity”.

Regarding “QVQLVESGGGLVQAGGSLRLSCAASGRIFYYNVMGWYRQAPGKERELVASISYSSTRTYYADSVKGRFTISRDNAKNTVYLQMNSLKPEDTAVYYCAVDTYAYRGVSYWSERTYYYWGQGTQVTVSS”, the “polyreactivity (PSR sort gate)” value is “low polyreactivity”.

Turning to “QVQLVESGGGLVQAGGSLRLSCAASGRIFYYYAMAWYRQAPGKERELVAAITRRGGSTYYADSVKGRFTISRDIAKNTVYFQMNSLKPEDTAVYYCAKPDRTGWLDGDYWGQGTQVTVSS”, the “polyreactivity (PSR sort gate)” value is “low polyreactivity”.

“QVQLVESGGGLVQAGGSLRLSCAASGRIFYYYAMGRYRQAPGKERELVAAITQSGGSTYYADSVKGRFTISRDNAKNTVYLQMNSLKPEDTAVYYCNAVLSSNTKWRYPGDYWGQGTQVTVSS”: the “polyreactivity (PSR sort gate)” value is on record as “low polyreactivity”.

Regarding “QVQLVESGGGLVQAGGSLRLSCAASGRIFYYYAMGWYREAPGKEREFVARNRSSGGSTYADSVKGRFTISRDNAKNTVYLQMNSLKPEDTAVYYCARDGYTAVEYDYWGQGTQVTVSS”, the “polyreactivity (PSR sort gate)” value is on record as “low polyreactivity”.

On to “QVQLVESGGGLVQAGGSLRLSCAASGRIFYYYAMGWYRQAPGKEREFVAAITGRGGSTYYADSVKGRFTISRDNAKNTVYLQMNSLKPEDTAVYYCNAGQYFEYYGWYSRYGYWGQGTQVTVSS”, for which the “polyreactivity (PSR sort gate)” value was “low polyreactivity”.

In the case of “QVQLVESGGGLVQAGGSLRLSCAASGRIFYYYAMGWYRQAPGKEREFVAAITGRGGSTYYADSVKGRFTISRDNEKNTVYLQMYSLKPEDTAVYYCNAGQYFEYYGWYSRYGYWGQGTQVTVSS”, the “polyreactivity (PSR sort gate)” value was “low polyreactivity”.

“QVQLVESGGGLVQAGGSLRLSCAASGRIFYYYAMGWYRQAPGKERELVAAINRSGGSTYYADSVKGRFTISRDNAKNTVYLQMNSLKPEDTAVYYCASYDYWGQGTQVTVSS”: the “polyreactivity (PSR sort gate)” value is reported as “high polyreactivity”.

Consider “QVQLVESGGGLVQAGGSLRLSCAASGRIFYYYAMGWYRQAPGKERELVAAISQRGGRTYYADSVKGRFTISRDNAKNTVYLQMYSLNQEDPAVYYCNVAGVVYPWYYYWGQGTQVTVSS”, for which the “polyreactivity (PSR sort gate)” value is given as “high polyreactivity”.

For the sequence “QVQLVESGGGLVQAGGSLRLSCAASGRIFYYYAMGWYRQAPGKERELVAGIDSGDSTNYADSVKGRFTISRDNAKNTVYLQLNSLKPEDTAVYYCAALHYGGYFSYYPYYYWGQGTQVTVSS”, the “polyreactivity (PSR sort gate)” value is “low polyreactivity”.

As to “QVQLVESGGGLVQAGGSLRLSCAASGRIFYYYAMGWYRQAPGKERELVATISRAGITNYADSVKGRFTISRDNAKNTVYLQMNSLKPEDTAVYYCADTFYPWRYNYEYWGQGTQVTVSS”, the “polyreactivity (PSR sort gate)” value is recorded as “high polyreactivity”.

With “QVQLVESGGGLVQAGGSLRLSCAASGRIFYYYAMGWYRQAPGKERELVAVISRGGRTKYADSVKGRFTISRDNAKNTVYLQMNSLKPEDTAFYYCAAYPSYYGDSGLRYDYWGQGTQVPVSS”, the “polyreactivity (PSR sort gate)” value is “high polyreactivity”.

Turning to “QVQLVESGGGLVQAGGSLRLSCAASGRIFYYYAMGWYRQAPGTERELVASINSVGTTTYADSVKGRFTISRDNAKNTVYLEMNSLKPEDTAVYYCARDTGSIYYDGYEYDYWGQGTQVTVSS”, the “polyreactivity (PSR sort gate)” value is recorded as “low polyreactivity”.

As to “QVQLVESGGGLVQAGGSLRLSCAASGRIFYYYAMLWYRQAPGKERELVAAIRRGGSTNYADSVKGRFTISRDNAKNTVYLQMNSLKPEETAVYYCAARSARLEYYYWGQGTQVTVSS”, the “polyreactivity (PSR sort gate)” value was “high polyreactivity”.

In the case of “QVQLVESGGGLVQAGGSLRLSCAASGRIFYYYGMGWYRQAPGKERELVAAISNGGRTYYADSVKGRFTISRDNAKNTVYLQMTSLKPEDTAVYYCAALTRGRGGYDYWGQGTQVTVSS”, the “polyreactivity (PSR sort gate)” value is “high polyreactivity”.
